Substitutions are numbered along the chain they refer to. Read-outs that look alike come from different tables or passages of the source.
B1: BP1A10 Nb-huFc (Fc fusion)
chain: EVQLQASGGGFVQPGGSLRLSCAASGQPSDRYIMGWFRQAPGKEREFVSAISQGAANKTAYADSVKGRFTISRDNSKNTVYLQMNSLRAEDTATYYCATHFNWQNYSYWGQGTQVTVSS
B2: AP1B6 Nb-huFc (Fc fusion)
chain: EVQLQASGGGFVQPGGSLRLSCAASGSAFQIYAMGWFRQAPGKEREFVSAISSTDSETDHYADSVKGRFTISRDNSKNTVYLQMNSLRAEDTATYYCAVNGFDYAHSKAGPQVYWGQGTQVTVSS
B3: KP1C9 Nb-huFc (Fc fusion)
chain: EVQLQASGGGFVQPGGSLRLSCAASGRTFDAYSMGWFRQAPGKEREFVSAISSWSDDWTAYADSVKGRFTISRDNSKNTVYLQMNSLRAEDTATYYCALQNTKEDRLYWGQGTQVTVSS
B4: AP1C3 Nb-huFc (Fc fusion)
chain: B3 chain with F29Y, D30R, A31G, L99W, N101Y, T102I, K103D, D105I, R106Q, L107Y
B5: KP2C6 Nb-huFc (Fc fusion)
chain: EVQLQASGGGFVQPGGSLRLSCAASGRTFTSFHMGWFRQAPGKEREFVSAISSGDDGTQYYADSVKGRFTISRDNSKNTVYLQMNSLRAEDTATYYCAAYTTTTVPQYWGQGTQVTVSS
B6: AP1A5 Nb-huFc (Fc fusion)
chain: EVQLQASGGGFVQPGGSLRLSCAASGSTASHYTMGWFRQAPGKEREFVSAISSGRDHAKQYADSVKGRFTISRDNSKNTVYLQMNSLRAEDTATYYCAYEEINATQKDTLYWGQGTQVTVSS
B7: AP1D4 Nb-huFc (Fc fusion)
chain: EVQLQASGGGFVQPGGSLRLSCAASGHTFDAHRMGWFRQAPGKEREFVSAISSWGQSSTYYADSVKGRFTISRDNSKNTVYLQMNSLRAEDTATYYCAQTDEGNQYVYWGQGTQVTVSS
B8: DP4F2 Nb-huFc (Fc fusion)
chain: EVQLQASGGGFVQPGGSLRLSCAASGTTYSERVMGWFRQAPGKEREFVSAISSGQSDQTYYYADSVKGRFTISRDNSKNTVYLQMNSLRAEDTATYYCAPFAGDANLPREWYWGQGTQVTVSSA
B9: BP1B1 Nb-huFc (Fc fusion)
chain: EVQLQASGGGFVQPGGSLRLSCAASGRTFSGYIMGWFRQAPGKEREFVSAISQGDSYASYYADSVKGRFTISRDNSKNTVYLQMNSLRAEDTATYYCALYDINTVPYYWGQGTQVTVSS
B10: BP2H9 Nb-huFc (Fc fusion)
chain: EVQLQASGGGFVQPGGSLRLSCAASGQTFTHVPMGWFRQAPGKEREFVSAISDTSGFETYYADSVKGRFTISRDNSKNTVYLQMNSLRAEDTATYYCAWAYDQFNWNYWGQGTQVTVSS
B11: BP2A6 Nb-huFc (Fc fusion)
chain: EVQLQASGGGFVQPGGSLRLSCAASGQTFSHYIMGWFRQAPGKEREFVSAISAGQGHATYYADSVKGRFTISRDNSKNTVYLQMNSLRAEDTATYYCAKYQDTIAPLYWGQGTQVTVSS
B12: KP1B5 Nb-huFc (Fc fusion)
chain: EVQLQASGGGFVQPGGSLRLSCAASGFTFDWSAMGWFRQAPGKEREFVSAISSSTSESTTYADSVKGRFTISRDNSKNTVYLQMNSLRAEDTATYYCATYYGGKTVEQDFYWGQGTQVTVSS
B13: BP2A3 Nb-huFc (Fc fusion)
chain: EVQLQASGGGFVQPGGSLRLSCAASGRTFSAYSMGWFRQAPGKEREFVSAISAGDGAASYYADSVKGRFTISRDNSKNTVYLQMNSLRAEDTATYYCAHYYTTSATLDYAYWGQGTQVTVSS

Key:
[1] = target: T1, SARS-COV-2 Wuhan (WT) RBD (SARS-COV-2, UniProt P0DTC2 319-541)
[2] = target: T2, SARS-COV-2 spike, Beta variant (B.1.351) (SARS-COV-2, UniProt P0DTC2 14-1273); experiment: cell-based or functional assay
[3] = target: T3, SARS-COV-2 spike, Gamma variant (P.1) (SARS-COV-2, UniProt P0DTC2 14-1273); experiment: cell-based or functional assay
[4] = target: T4, SARS-COV-2 spike, Mu variant (B.1.621) (SARS-COV-2, UniProt P0DTC2 14-1273); experiment: cell-based or functional assay
[5] = target: T5, SARS-COV-2 spike, Delta variant (B.1.617.2) (SARS-COV-2, UniProt P0DTC2 14-1273); experiment: cell-based or functional assay
[6] = target: T6, SARS-COV-2 spike, Lambda variant (C.37) (SARS-COV-2, UniProt P0DTC2 14-1273); experiment: cell-based or functional assay
SARS-COV-2 Delta RBD [7] = target: T7, SARS-COV-2 Delta RBD (SARS-COV-2, UniProt P0DTC2 319-541); experiment: ELISA titration (A450 against Nb-hFc ug/mL) on SARS-CoV-2 Delta RBD
T7 construct: domain: RBD; also called SARS-COV-2 Delta RBD variant

SARS-COV-2 Delta RBD [8] = target: T7, SARS-COV-2 Delta RBD
[9] = target: T2, SARS-COV-2 spike, Beta variant (B.1.351); experiment: cell-based or functional assay; remark: listed apart in the source
[10] = target: T3, SARS-COV-2 spike, Gamma variant (P.1); experiment: cell-based or functional assay; remark: listed apart in the source
[11] = target: T5, SARS-COV-2 spike, Delta variant …; experiment: cell-based or functional assay; remark: listed apart in the source
[12] = target: T6, SARS-COV-2 spike, Lambda variant (C.37); experiment: cell-based or functional assay; remark: listed apart in the source
[13] = target: T4, SARS-COV-2 spike, Mu variant (B.1.621); experiment: cell-based or functional assay; remark: listed apart in the source
[14] = target: T1, SARS-COV-2 Wuhan (WT) RBD; remark: listed apart in the source
[15] = target: T8, SARS-COV-2 spike, Omicron variant (BA.1) (SARS-COV-2, UniProt P0DTC2 14-1273); experiment: cell-based or functional assay
[16] = target: T1, SARS-COV-2 Wuhan (WT) RBD; remark: listed apart in the source
[17] = target: T8, SARS-COV-2 spike, Omicron variant (BA.1); experiment: cell-based or functional assay; remark: listed apart in the source

Row | Binder | Kd [1] | EC50, neutralization of spike pseudotyped virus [2] | EC50, neutralization of spike pseudotyped virus [3] | EC50, neutralization of spike pseudotyped virus [4] | EC50, neutralization of spike pseudotyped virus [5] | EC50, neutralization of spike pseudotyped virus [6] | binding result (SARS-COV-2 Delta RBD [7]) | Kd (SARS-COV-2 Delta RBD [8]) | EC50, neutralization of spike pseudotyped virus [9] | EC50, neutralization of spike pseudotyped virus [10] | EC50, neutralization of spike pseudotyped virus [11] | EC50, neutralization of spike pseudotyped virus [12] | EC50, neutralization of spike pseudotyped virus [13] | Kd [14] | EC50, neutralization of spike pseudotyped virus [15] | Kd [16] | EC50, neutralization of spike pseudotyped virus [17]
1 | B1 | 0.548 nM | 4.32 nM | 3.95 nM | 26.1 nM | – | – | – | – | – | – | – | – | – | – | – | – | –
2 | B2 | 0.585 nM | 0.12 nM | 0.26 nM | 1.54 nM | 586 nM | 414 nM | no binding (tested: 10 ug/mL) | – | – | – | – | – | – | – | – | – | –
3 | B3 | 0.119 nM | – | – | – | – | – | – | 25.5 nM | 203 nM | 80.2 nM | 1.22 nM | 0.13 nM | 2.02 nM | – | – | – | –
4 | B4 | 0.133 nM | 338 nM | 1.07 nM | 0.83 nM | 191 nM | 0.02 nM | – | 33.3 nM | – | – | – | – | – | – | – | – | –
5 | B5 | 4.46 nM | – | – | – | – | – | – | 62.6 nM | 411 nM | 408 nM | 18.3 nM | 612 nM | 305 nM | – | – | – | –
6 | B6 | 1.28 nM | 198 nM | 533 nM | 7.18 nM | 73.3 nM | 79.1 nM | no binding (tested: 10 ug/mL) | – | – | – | – | – | – | – | – | – | –
7 | B7 | 1.09 nM | 627 nM | 13.5 nM | 1.92 nM | 758 nM | 490 nM | – | – | – | – | – | – | – | – | – | – | –
8 | B8 | 9.51 nM | – | – | – | – | – | – | 1.91 nM | – | – | 26.8 nM | – | 25.1 nM | – | – | – | –
9 | B9 | 0.266 nM | – | – | – | – | – | no binding (tested: 10 ug/mL) | – | 3.5 nM | 3.68 nM | – | – | 6.97 nM | 371 nM | 403 nM | – | –
10 | B10 | – | – | – | – | – | – | – | – | 0.21 nM | 0.26 nM | – | – | 922 nM | – | – | – | –
11 | B11 | 0.0766 nM | 0.34 nM | 0.63 nM | 2.53 nM | 875 nM | 883 nM | no binding (tested: 10 ug/mL) | – | – | – | – | – | – | – | – | 149 nM | 43.3 nM
12 | B12 | – | – | – | – | – | – | – | – | 482 nM | 214 nM | 324 nM | 472 nM | 367 nM | – | – | – | –
13 | B13 | 0.315 nM | – | – | – | – | – | no binding (tested: 10 ug/mL) | – | 4.44 nM | 3.73 nM | – | – | 466 nM | – | – | – | –

Source: patent US12091446 (NATIONAL TECHNOLOGY AND ENGINEERING SOLUTIONS OF SANDIA, dated 2024)
